According to patent publication US20150098947A1 (RESEARCH DEVELOPMENT FOUNDATION, published 2015):

T1: human Olfml3-FLAG (human, UniProt Q9NRN5 22-406, limits assumed)
T1 construct: Screening antigen of the hybridoma ELISA; the tag is written last only by convention; not shown: FLAG tag
T1 sequence (looked up): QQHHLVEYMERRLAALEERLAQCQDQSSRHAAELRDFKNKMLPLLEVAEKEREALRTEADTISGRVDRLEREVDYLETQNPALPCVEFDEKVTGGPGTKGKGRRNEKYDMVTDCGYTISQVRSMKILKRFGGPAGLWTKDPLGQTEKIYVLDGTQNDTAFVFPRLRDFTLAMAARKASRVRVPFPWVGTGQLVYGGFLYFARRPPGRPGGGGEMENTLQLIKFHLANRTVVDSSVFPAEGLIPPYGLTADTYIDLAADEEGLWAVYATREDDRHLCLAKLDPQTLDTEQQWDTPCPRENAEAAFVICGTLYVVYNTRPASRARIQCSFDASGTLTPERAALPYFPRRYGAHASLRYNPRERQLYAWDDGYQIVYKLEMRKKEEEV

T2: Olfml-3 peptide B (human Olfml3 390-403 aa, olfactomedin-like domain) (human)
T2 peptide: GYQIVYKLEMRKKE

T3: Olfml-3 peptide A (human Olfml3 86-99 aa, coiled-coil domain) (human)
T3 peptide: RVDRLEREVDYLET


How the values were obtained:
[1] = biological target: T1, human Olfml3-FLAG; assay: hybridoma screening ELISA
Method: The inventors produced a panel of monoclonal antibodies against a recombinant Olfml-3 protein. Three antibodies against human Olfml3 were generated using standard techniques by injecting simultaneously two 14-aa long peptides comprising epitopes in the coiled-coil (peptide A, 86-99 aa: […]; SEQ ID NO: 5) and the olfactomedin-like domains (peptide B, 390-403 aa: […]; SEQ ID NO: 6) as immunogens in rats (Aurrand-Lions et al., 1996). Briefly, human Olfml3 peptides A and B coupled to 100 μg KLH carrier protein (keyhole limpet hemocyanin, Pierce) and mixed with adjuvant 56322 (Sigma), were used to immunize female Wister rats. In total, three injections were performed every 9 days. Two days after a final s.c. injection of human Olfml3 peptides, blasts from draining lymph nodes were fused to Sp2/0 cells, and hybridomas were selected in HAT-containing medium (Life Technologies). Growing clones were screened by ELISA for the production of monoclonal antibodies recognizing specifically human Olfml3-FLAG. Positive clones were subcloned, rescreened, and further tested. Antibodies were purified on protein G-Sepharose columns (GE HealthCare) according to the manufacturer instructions. Two Olfml3-binding antibodies, 46A9BO and 9F8BO, are of IgG2b isotype subclass and one, Z14A7, is of IgG2c isotype subclass. The 46A9BO and 9F8BO monoclonal antibodies were used for in vivo tumor graft models.

[2] = biological target: T2, Olfml-3 peptide B (human Olfml3 390-403 …); assay: peptide binding test (ELISA)
[3] = biological target: T3, Olfml-3 peptide A (human Olfml3 86-99 …); assay: peptide binding test (ELISA)

binding result [1] | binding result [2] | binding result [3] | Binder
binds | binds | no binding | 46A9BO monoclonal antibody (glycosylated) (antibody, IgG2b, V domains shown, also called mAb 2; anti-Olfml-3B) VH: AVHLVESGGGLVQPKESLKISCAASGFTFSNAAMYWVRQAPGKGLEWVARIRTKPNDYATYYVDSVKGRFTISRDDSQSMVYLQMDNLKTEDTAMYYCTAFTEPDYWGQGVMVTVSS VL: LIQPPSASVTLGSTVSLTCVGDELSKTYAHWYQQKPDKTIVSVIYKDSERPSGISDRFSGSSSGTTATLTIHGTLAEDEADYYCLSTYSDDNLPVFGGGTKLTVL
– | binds | no binding | deglycosylated 46A9BO antibody (antibody, V domains shown, Same rat IgG2b antibody as 46A9BO after deglycosylation; also called 46A9BO (deglycosylated)) VH: AVHLVESGGGLVQPKESLKISCAASGFTFSNAAMYWVRQAPGKGLEWVARIRTKPNDYATYYVDSVKGRFTISRDDSQSMVYLQMDNLKTEDTAMYYCTAFTEPDYWGQGVMVTVSS VL: LIQPPSASVTLGSTVSLTCVGDELSKTYAHWYQQKPDKTIVSVIYKDSERPSGISDRFSGSSSGTTATLTIHGTLAEDEADYYCLSTYSDDNLPVFGGGTKLTVL
binds | – | – | Z14A7 monoclonal antibody (antibody, IgG2c, V domains shown, Rat hybridoma antibody, IgG2c) VH: EVQLVETGGSLVQPGKSLKLTCATSGFTFSNAWMHWVRQSPEKQLEWVAQIKAKSNNYATYYAESVKGRFTISRDDSKSSIYLQMNSLKEEDTAIYYCLYGYYFDYWGQGVMVTVSS VL: DVVMTQTPVSLPVSLGGQASISCRSSQSLIHSNGNTYLHWFLQKPGQSPQLLIYRISNRFSGVPDRFSGSGSGTDFTLKISRVESEDLGLYYCLQGTHLPFTFGSGTKLEIKR
